Laboratory results from publication doi:10.1101/2024.09.28.615595.
Numbering of substitutions follows the chain as printed. Where two headings read alike, the source gives them in different places.

Key:
Test in all cases: EMSA
[1] = molecular target: T1, CsrA (Escherichia coli, UniProt P69913 1-61)
[2] = molecular target: T1, CsrA; remark: listed apart in the source
[3] = molecular target: T1, CsrA; remark: listed apart in the source

T1 sequence (P69913 whole entry): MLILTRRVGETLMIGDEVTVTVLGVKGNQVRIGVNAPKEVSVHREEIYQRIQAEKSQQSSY

B1: uxuB CDS mutant (DOWNSTR mut) (ssRNA)
RNA: GGGAUAAUGCGCUUUCUUUAGCCGUUAAUAUCCACCGGCAUGGCUGCGCGCCGUGCCGGUUCCUUCUUCCUUGCCGUCACUCUUUGAAGACGGAUUCUGGAGUUUACGAUGACUACUAUUGUUGACAGCAAUCUGCCGGUUGCCCGCCCGUCAUUUGAUCAUUCUCGUCUGCAAUCACGCAUUGUGCAUCUAGGUUGCGGGGCGUUUCGCAUGC
B1 was tested, and the “apparent K (half saturation)” value [1] was ~158 nM.

B2: uxuB no GGAs mutant (ssRNA)
RNA: B1 RNA with C69G, C74G, G93C, G100C
With B2 the “apparent K (half saturation)” value [1] was ~193 nM.

B3: uxuB CDS truncation wild type (ssRNA)
RNA: GGGAUAAUAUGACUACUAUUGUUGACAGCAAUCUGCCGGUUGCCCGCCCGUCAUGGGAUCAUUCUCGUCUGGAAUCACGCAUUGUGCAUCUCGGUUGCGGGGCGUUUC
B3 was tested, and the Kd [2] was ~164 nM.

B4: uxuB leader wild type (ssRNA)
RNA: GGGAUAAUGCGCUUUCUUUAGCCGUUAAUAUCCACCGGCAUGGCUGCGCGCCGUGCCGGUUCCUUCUUCCUUGCCGUCACUCUUUGAAGACGGAUUCUGGAGUUUACGAUGACUACUAUUGUUGACAGCAAUCUGCCGGUUGCCCGCCCGUCAUGGGAUCAUUCUCGUCUGGAAUCACGCAUUGUGCAUCUCGGUUGCGGGGCGUUUC
B4 was tested, and the Kd [1] was ~83.2 nM.

B5: uxuB 5' UTR truncation mutant (ssRNA)
RNA: GGGAUAAUGCGCUUUCUUUAGCCGUUAAUAUCCACCGGCAUGGCUGCGCGCCGUGCCGGUUCCUUCUUGCUUGGCGUCACUCUUUGAAGACGCAUUCUGCAGUUUACGA
B5: no binding [3].
